Experimental data taken from US7387779B2, “Anti-angiogenic proteins and fragments and methods of use thereof” (Beth Israel Deaconess Medical Center, priority 1998, dated 2008).

How the values were obtained:
DU-145 cells = assay: MTT cell viability assay; assay type: cell-based; details: 0-50 μg/ml
Procedure: (§1) Cell viability was measured by MTT assay, as described above.
(§2) The effects of Tumstatin-44-131 and Tum-5-125-C-A on cell viability of C-PAE cells were not seen in control PC-3 and DU-145 cells, as shown in FIGS. 52C and 52D. […] The activity of Tumstatin-44-131 is therefore specific to endothelial cells.

PC-3 cells = assay: MTT cell viability assay; assay type: cell-based, human; details: 0-50 μg/ml
Procedure: as §1, §2

Goodpasture autoantibody = assay: Reactivity with Goodpasture autoantibody (western blotting); assay type: binding, human
Excerpt: Goodpasture syndrome is an autoimmune disease characterized by pulmonary hemorrhage and/or rapidly progressing glomerulonephritis, which are caused by the disruption of glomerular and alveolar basement membranes through immune injury associated with autoantibody activity against α3(IV) NC1. Recently, the most probable disease-related pathogenic epitope was identified in the N-terminal portion (Kalluri, R. et al., 1996, J. Biol. Chem. 271:9062-8; Hellmark, T. et al., 1999, Kidney Int. 55:938-44), and was then further confined within the N-terminal 40 amino acids (Hellmark, T. et al., 1999, J. Biol. Chem. 274:25862-8; Netzer, K. O. et al., 1999, J. Biol. Chem. 274:11267-74). The N-terminal Tumstatin-44-131 consists of residues 44-131 of Tumstatin, which is outside of the Goodpasture autoepitope. To further confirm that Tumstatin-44-131 would not be detected by Goodpasture autoantibody, antisera from patients with Goodpasture was used for western blotting.

C-PAE cells = assay: Cell cycle analysis (propidium iodide, flow cytometry); assay type: cell-based, bovine
Procedure: To further evaluate the mechanism of T3 peptide on endothelial cell proliferation, the effect of T3 peptide on cell cycle progression was analyzed. In the growth arrested and contact inhibited cells (0 hour), 4.1% of cells were in S phase. […] This was true even at a maximal dosage of 100 μg/ml. The effect of the T3 peptide was dose-dependent, however, with the percentage of cells in S phase at 21.4% at 10 μg/ml, and 20.5% at 25 μg/ml. The percentage of cells in G0/G1 phase was 88.3% at 0 hour, 53.4% for the bFGF control, and 57.6%, 57.6% and 71.0% for treatments with T1, T6 and T3 peptide, respectively. […] Apoptotic Activity: Peptides T2, T3, T4, T5 and T6 (10 μg/ml concentration) were tested for their effect of viability of C-PAE cells using the MTT assay, as described in Examples 32 and 36 above. The results are shown in FIG. 43D, which is a histogram showing cell viability as measured at OD595 (y-axis), and treatments with the synthetic peptides (x-axis). […] TNF-α (100 ng/ml) was used to serve as a positive control in inducing endothelial cell apoptosis.
The effect of Tumstatin-44-131 and Tum-5-125-C-A on the cell cycle were assayed similarly to Example 4 above. Briefly, C-PAE cells were growth arrested by contact inhibition for 48 hours. The cells, at 10^5 cells per well, were then harvested and plated into a 12-well plate coated with fibronectin in 5% FCS and either recombinant Tumstatin-44-131 or Tum-5-125-C-A. After 21 hours, the cells were harvested and fixed in 70% ice-cold ethanol. The fixed cells were rehydrated a room temperature for 30 minutes in PBS containing 2% FCS and 0.1% Tween-20, centrifuged and resuspended in 0.5 ml of the same buffer. RNase (5 μg/ml) digestion was done at 37° C. for one hour, followed by staining with propidium iodide (5 μg/ml). The cells were then counted using an EPICS XL-MCL flow cytometer (Beckman-Coulter Instruments, Fullerton, Calif., USA).

PC-3 tumors = assay: PC-3 xenograft in athymic nude NCRNU mice (Example 46); assay type: in vivo; details: 1 mg/kg i.p. b.i.d., 20 days
Procedure: Tumstatin-44-131 was also tested for its ability to suppress tumor growth. Male athymic nude NCRNU mice, of 5-6 weeks of age and about 25 g, were implanted with […] approximately 2×10^6 PC-3 (prostate cancer carcinoma) cells into the dorsal subcutis. […] The tumors were allowed to grow to about 50 mm^3, and animals were then pair-matched into groups of 6 mice. Initial doses of protein or vehicle (PBS, control) were given on the day of pair-matching (Day 1). Tumstatin-44-131, Tum-5-125-C-A, or human endostatin in sterile PBS was intraperitoneally injected daily b.i.d. at doses ranging from 1 to 20 mg/kg for 20 days. Control animals received injection of PBS vehicle. In one treatment, continuous subcutaneous delivery of Tumstatin-44-131 was done using surgically implanted Alzet mini-pumps. The mice were weighed twice weekly, and tumor measurements were taken, starting on Day 1. Estimated mean tumor volumes were calculated, and at Day 21, the mice were weighed, sacrificed, and their tumors excised and examined by light microscopy and CD31 immunostaining. The mean treated tumor weight was divided by the mean control tumor weight was subtracted from one, and expressed as a percentage to give the tumor growth inhibition for each group.

B1: Tum-5-125-C-A: Tumstatin-44-131 with cysteine at position 125 mutated to alanine (SEQ ID NO:34) (protein)
chain: FSFLFVQGNQRAHGQDLGTLGSCLQRFTTMPFLFCNVNDVCNFASRNDYSYWLSTPALMPMNMAPITGRALEPYISRCTVAEGPAIAI
modifications: Tumstatin-5-125-C-A (amino acids 45-132 of SEQ ID NO10; alanine has been substituted for the cysteine residue at position 125 of the full-length Tumstatin molecule)
B1 was tested, and the “effect on viability of DU-145 cells” value (DU-145 cells) was “not seen”, the “effect on viability of PC-3 cells” value (PC-3 cells) was “not seen” and the “detection by antisera / autoantibodies from patients with Goodpasture syndrome” value (Goodpasture autoantibody) was “failed to detect”. For the same molecule, the “cell cycle arrest compared with Tumstatin-44-131” value (C-PAE cells) was “equivalent to treatment with Tumstatin-44-131” and the tumor growth inhibition (PC-3 tumors) was 92.0%.
